Among the data in patent publication US20160068595A1 are Kd, koff and kon values, retold here.

Assay [1] concerns the target human IL-20 (interleukin-20), recombinant (human) (UniProt Q9NYY1). The assay can be described thus: SPR, BIAcore T100; antibody captured on anti-human IgG CM5 chip, IL-20 as analyte, 1:1 model. In general terms: SPR reads the build-up and loss of mass on a sensor chip optically.
For assay [2] the target is unchanged. The assay can be described thus: binding kinetics of CDR mutants; method not named.

human IL-20 (interleukin-20), recombinant (human), sequence (Q9NYY1 25-176 limits assumed): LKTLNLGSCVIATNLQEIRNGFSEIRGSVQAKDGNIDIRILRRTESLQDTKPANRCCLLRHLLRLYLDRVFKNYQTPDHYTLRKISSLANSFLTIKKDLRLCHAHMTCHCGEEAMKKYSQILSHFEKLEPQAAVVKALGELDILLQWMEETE

B1: HH12 humanized anti-IL-20 antibody (antibody, V domains shown)
VH: EVQLQESGGGLVQPGGSLRLSCAASGFTFSDAWMDWVRQAPGKGLEWVGEIRSKANNYATYFAESVKGRFTISRDDSKNSLYLQMNSLKTEDTGVYYCTKLSLRYWFFDVWGQGTLVTVSS
VL: DIQMTQSPLSLSVTPGQPASISCKSSQSLLDSDGKTYLNWYQQKPGQSPQLLIYLVSKLDSGVPDRFSGSGSGTDFTLKISRVEAEDVGVYYCWQSTHFPWTFGQGTKVEIKR
For B1, in assay [1], the dissociation constant Kd was found to be 2.68 nM, the koff was determined as 0.00358 s⁻¹ and the kon turned out to be 1.34e+06 M⁻¹ s⁻¹. For the same molecule, in assay [2], the Kd was 2.68 nM, the koff is 0.00358 s⁻¹ and the kon worked out at 1.34e+06 M⁻¹ s⁻¹.

In general, Kd refers to the constant that tells how readily two partners part at equilibrium. As a reminder, the koff is a measure of how fast the partners let go of each other. A word on the kon: it is the second-order rate constant of association.
